B1: PRT-617 (protein)
chain: MQITSVWTKGVTPLTPEQFRYNNEDVIHAPYLPHQGWYDITKAFDGGDNLLCGAATAGNMLHWWFDQNKTEIEAYLSKYPEKQKIIFNNQELFDLRAAINSKDSQTNSQLFNYFRDKAFPNLSARQLGVMPDLVLDMFINGYYLNVFKTQSTDVNRPYQDPDKRGGIFDDVFKEGDQTTLLTARHDLKNGGLNDISTIIKQELQSGRALALSHTYANVSISHVINLWGADFNAEGNLEAIYVTDSDANQSIGMKKYKVGINAHGHVAISAKKIEGENIGAQVLGLFTLSSGKEIWQKLSLEHHHHHH
B2: PRT-507 (protein)
chain: MITSVWTKGVTPPTDFIKGEDVFHAPYKAGQGWYDITKAFDGGDDLLCGAATAGNMLHWWFDQNKEEIEAYLKKHPEKQKIMFGDQELLDVRKVINTKDSQTNSALFNYFKDKAFPNLSARRLGVMPDLVLDMFINGYYLNVYKTQTTDVNRTYQTKDRRGGIFDAVFTRGDQSKLLTERHDFKEKTLKEISDLIKQELTEGKALGLSHTYANVRINHVINLWGADFDSNGNLEAIYVTDSDSNASIGMKKYFVGVNSAGKVAISAKEIKEDNIGAQVLGLFTLSTGQDIWNQTNLEHHHHHH
B3: PRT-689 (protein)
chain: MQITSVWTKGVTPLTMDQFTNNNEDVIHAPYKPGQGWYDITKTFDGKDNLLCGAATAGNMLHWWFDQNKEEIENYLKKHPEKQKIIFNNQKLFDLRKAINTKDSQTNSALFNYFRDKAFPNLSARQLGVMPDLVLDMFINGYYLNVFKTQSTDVNREYQTKDKRGGIFDDVFGRGDQTTLLTARHDLKNGGLNDISQIIKQELSSGKALALSHTYANVSISHVINLWGADFNEEGNLEAIYVTDSDANASIGMKKYYVGKNAHGKVAISAKKIEGENIGAQVLGLFTLSSGKEIWQKLSLEHHHHHH
B4: PRT-673 (protein)
chain: MQITSVWTKGVTPPTPEQFRYYNEDVLHAPYKPHQGWYDITKTFNGKDNLLCGAATAGNMLHWWFDQNKTQIEAYLKKYPEKQKIIFNNQKMFDLRKAINTKDSQTNSALFSYFKDKAFPNLSARQRGVMPDLVLDMFINGYYLNVGKTQSTDVNRPYQTRDKRGGIFDHVFGRGDQTKLLTARHDLKNKTLNEISQLIKQELSEGKALALSHTYANVSISHVINLWGADFNAEGNLEAIYVTDSDSDAKIGMKKYYVGKNASGKVAISAKKIEGENIGAQVLGLYTLSTGKDIWQKLSLEHHHHHH
B5: PRT-524 (protein)
chain: MITSVWTKGVTPPTDFRKIVDGNIAYYHAPYKAGQGWYDITKAFDGGDNLLCGAATAGNMLHWWFDQNKEEIEAYLKKHPEKQKIIFNNQELFDLKAVINTKDSQTNSALFNYFKDKAFPNLSARRLGVFPDLVLDMFINGYYLNVYKTQTTDVNRTYQTKDRRGGIFDAVFTRGVQSKLLTERHDLKNKTLKEISDLIKQELTEGKALGLSHTYANVRINHVINLWGADFDSNGNLEAIYVTDSDTNASIGMKKYFVGVNSAGKVAISAKEIKEDNIGAQVLGLFTLSTGQDIWNQTNLEHHHHHH
B6: PRT-631 (protein)
chain: MQITSVWTKGVTPLTPEQFRYNNEDVIHAPYLAHQGWYDITKAFDGKDNLLCGAATAGNMLHWWFDQNKEEIDNYLKKYPDKQKIIFNNQELFDLKAAIDTKDSQTNSQLFNYFRDKAFPNLSARQLGVMPDLVLDMFINGYYLNVFKTQSTDVNRPYQDKDKRGGIFDAVFTRGDQTTLLTARHDLKNKGLNDISTIIKQELTEGRALALSHTYANVSISHVINLWGADFNAEGNLEAIYVTDSDANASIGMKKYFVGINAHGHVAISAKKIEGENIGAQVLGLFTLSSGKEIWKKLSLEHHHHHH
B7: PRT-683 (protein)
chain: MQITSVWTKGVTPLTPEQFRYNNEDVIHAPYLAHQGWYDITKAFNGKDNLLCGAATAGNMLHWWFDQNKEEIEAYLKKHPEKQKIIFNNQELFDLRKAINTKDSQTNSQLFNYFRDKAFPNLSARQLGVMPDLVLDMFINGYYLNVFKTQSTDVNRPYQDKDKRGGIFDHVFTRGDQTTLLTARHDLKNKTLNDISQIIKQELQEGKALALSHTYANVSISHVINLWGADFNAEGNLEAIYVTDSDANASIGMKKYFVGKNAHGHVAISAKKIEGENIGAQVLGLFTLSSGKEIWQKLSLEHHHHHH
B8: PRT-499 (protein)
chain: MVTSVWTKGVTPPADFRKIVDGNIAYYHAPYVANQGWYDITKTFNGKDDLLCGAATAGNMLHWWFDQNKEYIEAYLKKHPEKQKIMFGDQELLDVRKAINTKGSQKNSELFNYFRDKAFPNLSARRLGVMPDLVLDMFINGYYLNVTKTQTTDVNRTYQEKDKRGGIFDAVFTRGDQSKLLTSRHDLKNKGLKEISDLIKQELTEGKALGLSHTYANVRINHVINLWGADFDSDGNLKAIYVTDSDSNASIGMKKYFVGVNSAGKVAISAKEIKEDNIGAQVLGLFTLSTGQDIWNQTNLEHHHHHH
B9: PRT-531 (protein)
chain: MANQEIRYSEDTPSHITSVWTKGVTPPTQFIQNEDVLHAPYIANQGWYDITKTFNGKDDLLCGAATAGNMLHWWFDQNKEQIEAYLKKYPEKQKINFNGEQMFDVKEAIDTKDSQTDSALFNYFRDKAFPNLSTKHLGVMPDHVIDMFINGYRLNLGNHGPTPVKNQTKDLRGGIFDAVFTRGDQSKLLTARHDFKEKTLKEISQLIKQELTEGKALALSHTYANVRINHVINLWGADFNAEGNLEAIYVTDSDSNASIGMKKYYVGVNAAGKVAISAKEIEGDNIGAQVLGLFTLSSGQDIWQQTNLEHHHHHH
B10: PRT-613 (protein)
chain: MQITTVWTKGVTPLTPEQFRYNNEDVIHAPYLAHQGWYDITKAFDGKDNLLCGAATAGNMLHWWFDQNKTEIEAYLSKHPEKQKIIFNNQELFDLKAAISTKDSQTNSQLFNYFRDKAFPNLSARQLGVMPDLVLDMFINGYYLNVFKTQSTDVNRPYQDKDKRGGIFDDVFTRGDQTTLLTARHDLKNGGLNDISTIIKQELTNGRALALSHTYANVSISHVINLWGADFNAEGNLEAIYVTDSDANARIGMKKYGVGINAHGHVAISAKKIEGENIGAQVLGLFTLSSGKDIWQKLSLEHHHHHH
B11: PRT-695 (protein)
chain: MTITTVWTKGVTPPTPEDFRYNNEDVLHAPYVPNQGWYDITKTFDGKDNLLCGAATAGNMLHWWFDQNKEEIERYLKKYPEKQKIIFNNQELFDVRAAINTKDSQTNSKLFNYFRDKAFPNLSARQLGVMPDLVLDMFINGYYLNLGKTQSTDVNRPYQDRDKRGGIFDAVFNRGDQTTLLTARHDLKNKGLNEISDLIKQELSSGKALALSHTYANVRINHVINLWGADFDAEGNLIAIYVTDSDANASIGMKKYYVGVNANGKVAISAKKIEGDNIGAQVLGLFTLSTGQDIWQKLSLEHHHHHH
B12: PRT-505 (protein)
chain: MVTSVWTKGVTPPTDFIKGEDVFHAPYKAGQGWYDITKAFDGGDDLLCGAATAGNMLHWWFDQNKEYIEAYLKKHPEKQKIMFGDQELLDVRKAINTKGSQKNSELFNYFRDKAFPNLSARRLGVMPDLVLDMFINGYYLNVTKTQTTDVNRQEQEKDKRGGIFDAVFGRGDQTKLLTSRHDLKNKGLKEISDLIKQELTEGKALGLSHTYANVRINHVINLWGADFDSDGNLKAIYVTDSDSNASIGMKKYFVGVNSAGKVAISAKEIKEDNIGAQVLGLFTLSTGQKIWNKTNLEHHHHHH
B13: PRT-675 (protein)
chain: MQITSVWTKGVTPPTMDDFTINGEDVFHAPYVANQGWYDITKTFNGKDDLLCGAATAGNMLHWWFDQNKEQIERYLKKHPEKQKIIFNNQEMFDLKEAINTKDSQTDSKLFNYFRDKAFPNLSARQLGVMPDHVLDMFINGYYLNLTKTQSTDVNRPEDTKDLRGGIFDHVFTRGDQSKLLTARHDLKNKTLKEISDLIKQELTEGKALGLSHTYANVRISHVINLWGADFDAEGNLEAIYVTDSDSNASIGMKKYYVGVNSAGKVAISAKKIEGDNIGAQVLGLYTLSTGKDIWQKLSLEHHHHHH

This series concerns the target pooled human IgG (human IgG1,2,3 and 4).
Protein B1 gave an Enzyme activity endpoint: Fab′2 of 630 ng/µL, an Enzyme activity endpoint: Fc of 34 ng/µL, an Enzyme activity endpoint: IgG of 798 ng/µL and an Enzyme activity endpoint: scIgG of 25 ng/µL.

Consider B2, for which the Enzyme Activity Endpoint Assay (purified): Fab′2 turned out to be 927 ng/µL, the Enzyme Activity Endpoint Assay (purified): Fc came out at 355 ng/µL, the Enzyme Activity Endpoint Assay (purified): IgG was 112 ng/µL and the Enzyme Activity Endpoint Assay (purified): scIgG worked out at 0 ng/µL.

In turn, B3 returned an Enzyme Activity Endpoint Assay (purified): Fab′2 of 335 ng/µL, an Enzyme Activity Endpoint Assay (purified): Fc of 248 ng/µL, an Enzyme Activity Endpoint Assay (purified): IgG of 376 ng/µL and an Enzyme Activity Endpoint Assay (purified): scIgG of 174 ng/µL.

Protein B4 displayed an Enzyme activity endpoint: Fab′2 of 34 ng/µL, an Enzyme activity endpoint: Fc of 252 ng/µL, an Enzyme activity endpoint: IgG of 601 ng/µL and an Enzyme activity endpoint: scIgG of 989 ng/µL.

On to B5, for which the Enzyme Activity Endpoint Assay (purified): Fab′2 was 474 ng/µL, the Enzyme Activity Endpoint Assay (purified): Fc came to 285 ng/µL, the Enzyme Activity Endpoint Assay (purified): IgG was found to be 676 ng/µL and the Enzyme Activity Endpoint Assay (purified): scIgG was found to be 0 ng/µL.

B6 displayed an Enzyme activity endpoint: Fab′2 of 749 ng/µL, an Enzyme activity endpoint: Fc of 419 ng/µL, an Enzyme activity endpoint: IgG of 0 ng/µL and an Enzyme activity endpoint: scIgG of 0 ng/µL.

B7 showed an Enzyme activity endpoint: Fab′2 of 1100 ng/µL, an Enzyme activity endpoint: Fc of 570 ng/µL, an Enzyme activity endpoint: IgG of 0 ng/µL and an Enzyme activity endpoint: scIgG of 0 ng/µL.

B8 gave an Enzyme Activity Endpoint Assay (purified): Fab′2 of 637 ng/µL, an Enzyme Activity Endpoint Assay (purified): Fc of 365 ng/µL, an Enzyme Activity Endpoint Assay (purified): IgG of 436 ng/µL and an Enzyme Activity Endpoint Assay (purified): scIgG of 45 ng/µL.

B9 gave an Enzyme activity endpoint: Fab′2 of 756 ng/µL, an Enzyme activity endpoint: Fc of 212 ng/µL, an Enzyme activity endpoint: IgG of 0 ng/µL and an Enzyme activity endpoint: scIgG of 0 ng/µL.

For the protein B10, the Enzyme activity endpoint: Fab′2 came to 686 ng/µL, the Enzyme activity endpoint: Fc was 433 ng/µL, the Enzyme activity endpoint: IgG worked out at 15 ng/µL and the Enzyme activity endpoint: scIgG came out at 251 ng/µL.

In turn, B11 came in with an Enzyme activity endpoint: Fab′2 of 781 ng/µL, an Enzyme activity endpoint: Fc of 433 ng/µL, an Enzyme activity endpoint: IgG of 66 ng/µL and an Enzyme activity endpoint: scIgG of 0 ng/µL.

B12 yielded an Enzyme Activity Endpoint Assay (purified): Fab′2 of 37 ng/µL, an Enzyme Activity Endpoint Assay (purified): Fc of 148 ng/µL, an Enzyme Activity Endpoint Assay (purified): IgG of 609 ng/µL and an Enzyme Activity Endpoint Assay (purified): scIgG of 752 ng/µL.

As for B13, the Enzyme activity endpoint: Fab′2 was determined as 448 ng/µL, the Enzyme activity endpoint: Fc was found to be 400 ng/µL, the Enzyme activity endpoint: IgG came out at 229 ng/µL and the Enzyme activity endpoint: scIgG was 456 ng/µL.

The record behind these values is patent US20250027068.
